From patent US20240164355

Molecular target: Ubiquitin-AMC (Ub-AMC) (UniProt P0CG48)

**Q.** How did the Ub-AMC hydrolysis turn out when CidB* (CidB-C1025A catalytic mutant) was run?
**A.** The CidB-C1025A catalytic mutant was inactive against Ub-AMC (data not shown)
